Laboratory results from publication PMC2737085.

Target: RPA heterotrimer with the phosphomimetic Asp8-RPA2 subunit (UniProt P27694)
Experiment: co-IP

MRE11/RAD50/NBS1 (MRN) complex (from UniProt P49959 1-708; Q92878 1-1312; O60934 1-754)
percent decrease in binding against RPA: 88%
